Assay [1] concerns the target T1, … after cleavage to N-terminal leucine (LAFAYPDDD) (not fully specified (C-terminus); also: C-terminal azidolysine linked to DNA-streptavidin).
T1 construct: N-terminus exposed by aminopeptidases
T1 peptide: LAFAYPDDD
In words: single-molecule dynamic sequencing on chip.

Assay [2] addresses T2, … after cleavage to N-terminal leucine (LIFAYPDDD) (not fully specified (C-terminus); also: C-terminal azidolysine linked to DNA-streptavidin).
T2 construct: N-terminus exposed by aminopeptidases
T2 peptide: LIFAYPDDD
In words: single-molecule dynamic sequencing on chip.

The target in assay [3] is T3, … after cleavage to N-terminal leucine (LVFAYPDDD) (not fully specified (C-terminus); also: C-terminal azidolysine linked to DNA-streptavidin).
T3 construct: N-terminus exposed by aminopeptidases
T3 peptide: LVFAYPDDD
In words: single-molecule dynamic sequencing on chip.

The target in assay [4] is T4, … after cleavage to N-terminal leucine (LMFAYPDDD) (not fully specified (C-terminus); also: C-terminal azidolysine linked to DNA-streptavidin).
T4 construct: first population of traces, methionine not oxidized
T4 peptide: LMFAYPDDD
Description: single-molecule dynamic sequencing on chip.

Assay [5] addresses T5, RLMoFAYPDDD after cleavage to N-terminal leucine (LMoFAYPDDD) (not fully specified (C-terminus); printed as LMoFAYPDDD; also: C-terminal azidoLys linked to DNA-streptavidin).
T5 construct: second population of traces, methionine oxidized
T5 peptide: L[Met(O)]FAYPDDD
In words: single-molecule dynamic sequencing on chip.

The target in assay [6] is T6, synthetic peptide LRLAFAYPDDDK (not fully specified (residue 12)).
T6 construct: also called QP707
T6 peptide: LRLAFAYPDDDK-NH2
In words: single-molecule dynamic sequencing on chip.

Assay [7] has as its target T7, synthetic peptide LCitLAFAYPDDDK
T7 construct: also called QP789
T7 peptide: L[Cit]LAFAYPDDDK
In words: single-molecule dynamic sequencing on chip.

The target in assay [8] is T8, … after cleavage to N-terminal leucine (LTFIAYPDDD).
T8 construct: N-terminus exposed by aminopeptidases
T8 peptide: LTFIAYPDDD
Description: single-molecule dynamic sequencing on chip.

Assay [9] deals with T9, RLpTFIAYPDDD after cleavage to N-terminal leucine (LpTFIAYPDDD).
T9 construct: N-terminus exposed by aminopeptidases
T9 peptide: L[pT]FIAYPDDD[Lys(N3)]
In words: single-molecule dynamic sequencing on chip.

The target of assay [10] is T10, target peptide Met-Ala-Lys-Leu (MAKL).
T10 peptide: MAKL
In words: purified protein:peptide complex, X-ray crystallography.

Assay [11] has as its target T11, target peptide Ala-Ala-Lys-Leu (AAKL).
T11 peptide: AAKL
The description is as above.

The target in assay [12] is T12, labeled peptide XAKLDEESILKQK-FITC with N-terminal methionine.
T12 construct: also called MA peptide
T12 peptide: MAKLDEESILKQK(FITC)
Description: fluorescence polarization titration, FITC peptide (FIG. 9D). The protocol: (§1) Binding affinity was measured by polarization using a labeled peptide. The polarization response and total intensity measurements were carried out at 20° C. on a microplate fluorometer with 480 nm excitation and 530 nm emission. […] Multiple analyses were performed at increasing recognizer concentration at a fixed concentration of a target peptide to obtain a titration curve. An equilibrium polarization response at each concentration was plotted and fit to calculate the KD.
A general note: Fluorescence polarisation rises when a labelled molecule tumbles more slowly, as on binding a larger partner.

In assay [13] the target is T13, labeled peptide X…-FITC with N-terminal valine (FITC on the C-terminal Lys).
T13 construct: also called VA peptide; valine peptide
Description: fluorescence polarization titration, recognizer 0-4000 nM, labeled peptide fixed. The protocol:
as §1

For assay [14], the target named is T14, labeled peptide X…-FITC with N-terminal leucine (FITC on the C-terminal Lys).
T14 construct: the sentence itself names only the N-terminal residue; also called LA peptide
In words: fluorescence polarization titration, recognizer 0-5000 nM, labeled peptide fixed. The protocol: as §1

In assay [15] the target is T15, labeled peptide XAKLDEESILKQK-FITC with N-terminal isoleucine.
T15 construct: also called IA peptide
T15 peptide: IAKLDEESILKQK(FITC)
The description is as above. The protocol:
as §1

In assay [16] the target is peptide with N-terminal AK (lysine peptide of Example 12). Description: single-molecule dynamic sequencing on chip.
Assay [17] concerns the target peptide with N-terminal AK{acetyl} (acetyl-lysine peptide of Example 12). Description: single-molecule dynamic sequencing on chip.

Non-standard residues stand in square brackets, D forms with d. No end group written: not given here. *: point of attachment. FITC = O=C1OC2(c3ccc(O)cc3Oc3cc(O)ccc32)c2ccc(NC(=S)*)cc21; Lys(N3) = [N-]=[N+]=NCCCC[C@H](N)C(=O)O; pT = C[C@@H](OP(=O)(O)O)[C@H](N)C(=O)O; Met(O) = CS(=O)CC[C@H](N)C(=O)O; Cit = NC(=O)NCCC[C@H](N)C(=O)O

The term Kd denotes the equilibrium constant for the complex coming apart.

B1: PS961 (designed binder)
chain: MPTAASATESAIEDTPAPARPEVDGRTKPKRQPRYHVVLWDDDDHTYQYVVVMLRSLFGHPPSRGYRMAKEMDTQGRVIVLTTTREHAELKRDQIHAFGRDRLLARSKGSMKASIEAEE
notes: PS557 with N41D, Q55R, E63S, L68M, V72M, Y100R; His/biotinylation tag of the assay construct is not specified; also called Planctomycetes ClpS variant
Consider B1, for which the “median pulse duration (PD)” value in [1] was 1.29 s; in assay [2], 2.22 s; in [3], 4.21 s; in assay [4] it was 0.86 s; in [5], 0.35 s; in [6], 0.43 s. For the same molecule, in [7], the “median pulse duration (PD)” value was 0.78 s. For the same molecule, the “RS mean pulse duration (PD)” value came to 1.2 s in assay [8] and 0.3 s in assay [9]. The binding result in assay [10] and in assay [11] was “binds” each time. Further, the Kd in [12] stood at 0.947 µM; in assay [13], 0.144 µM; in assay [14], 0.055 µM; in assay [15], 0.068 µM.

B2: PS1165 (other)
chain: MGLENSLETLRFSISNLSMQTHAARMRTFMYWPSSVPVQPEQLASAGFYYVGRNDDVKCFCCDGGLRCWESGDDPWVEHAKWFPRCEFLIRMKGQEFVDEIQGRYPHLLEQLLSG
notes: alanine recognizer
As for B2, the “RS mean pulse duration (PD)” value in assay [16] worked out at 1.3 s; in [17] it was 2.2 s.

Source of the values: US20240272170A1 (QUANTUM SI, published 2024).
